The target of one assay is T1, IL-3R α chain (Homo sapiens, UniProt P26951).
T1 construct: amplify the complete coding region of the IL-3R alpha chain; expressed in transfected cells; host or cells: COS cells (pCDM8 vector, electroporation)
T1 sequence (P26951 19-378): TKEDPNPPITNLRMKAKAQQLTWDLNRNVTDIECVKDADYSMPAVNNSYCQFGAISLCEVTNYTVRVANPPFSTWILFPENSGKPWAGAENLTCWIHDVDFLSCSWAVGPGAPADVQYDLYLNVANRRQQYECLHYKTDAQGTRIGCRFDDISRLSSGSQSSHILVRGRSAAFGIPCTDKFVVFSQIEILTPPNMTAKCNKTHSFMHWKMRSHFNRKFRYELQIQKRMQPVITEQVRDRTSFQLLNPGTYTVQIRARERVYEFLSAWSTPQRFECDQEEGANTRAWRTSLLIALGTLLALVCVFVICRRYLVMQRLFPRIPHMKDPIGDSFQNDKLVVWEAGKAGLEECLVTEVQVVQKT
Nature of the assay: Competition for 125I-IL-3 binding to cloned IL-3R α chain expressed in COS cell transfectants. To be noted: for competition for 125I-IL-3 binding to cells expressing only the α chain: FIG. 6. The source says:
(§1) PolyA+ RNA was isolated from the human cord blood cell line KMT2. Oligo dT primed double stranded cDNA was synthesised and used as template for PCR amplification. The PCR primers were designed to amplify the complete coding region of the IL-3R alpha chain and also to amplify the coding region of the […]. The PCR products were cloned into the vector pGEM-2 for sequence verification, and then into the eukaryotic expression vector, pCDM8. The […]-containing plasmid was transfected into COS cells by electroporation, either on its own or in conjunction with the […], and after two days the cells were used for binding studies.

In assay [1] the target is T2, IL-3R α chain and β chain (Homo sapiens, UniProt P26951+P32927).
T2 construct: amplify the complete coding region of the IL-3R alpha chain; also to amplify the coding region of the IL-3R α chain; expressed in transfected cells; host or cells: COS cells (pCDM8 vector, electroporation)
T2 sequence (P26951 19-378): T1 sequence (P26951 19-378)
T2 sequence (P32927 17-897): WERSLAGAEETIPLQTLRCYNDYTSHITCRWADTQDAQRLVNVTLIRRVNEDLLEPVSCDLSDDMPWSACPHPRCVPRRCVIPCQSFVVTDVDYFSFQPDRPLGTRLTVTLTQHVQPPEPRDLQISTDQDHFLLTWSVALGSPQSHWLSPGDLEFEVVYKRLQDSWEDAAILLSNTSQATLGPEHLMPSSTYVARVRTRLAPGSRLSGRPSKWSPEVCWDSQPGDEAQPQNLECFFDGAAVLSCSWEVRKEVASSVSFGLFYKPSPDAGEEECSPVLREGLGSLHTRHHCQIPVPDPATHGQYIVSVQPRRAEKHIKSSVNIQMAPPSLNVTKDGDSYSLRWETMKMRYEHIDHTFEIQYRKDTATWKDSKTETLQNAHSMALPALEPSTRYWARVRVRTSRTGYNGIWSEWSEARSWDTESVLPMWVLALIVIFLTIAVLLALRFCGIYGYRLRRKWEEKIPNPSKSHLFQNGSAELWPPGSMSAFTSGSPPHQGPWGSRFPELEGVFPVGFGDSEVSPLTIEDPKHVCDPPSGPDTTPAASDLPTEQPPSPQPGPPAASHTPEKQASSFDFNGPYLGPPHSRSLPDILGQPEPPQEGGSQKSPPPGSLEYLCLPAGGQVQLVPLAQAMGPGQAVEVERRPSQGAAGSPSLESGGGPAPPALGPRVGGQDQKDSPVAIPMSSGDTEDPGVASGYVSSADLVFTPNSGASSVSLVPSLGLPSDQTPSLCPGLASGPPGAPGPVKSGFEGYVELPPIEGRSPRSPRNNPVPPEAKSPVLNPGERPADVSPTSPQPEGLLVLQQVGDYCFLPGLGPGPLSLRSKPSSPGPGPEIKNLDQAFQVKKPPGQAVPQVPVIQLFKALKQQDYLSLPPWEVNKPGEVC
As to the kind of experiment: Competition for 125I-IL-3 binding to reconstituted IL-3 high affinity receptor (α and β chains) in COS cells.
Source text: as §1

Assay [2] concerns bone marrow progenitor cells. As to the kind of experiment: Colony assay: clonal proliferation and differentiation of bone marrow progenitor cells in semi-solid agar. The format is cell-based. As for the experimental part:
(a) Colony assay: this assay measured the clonal proliferation and differentiation of bone marrow progenitor cells in semi-solid agar and was carried out as described (Lopez et. al., 1985, Blood 72, 1797-1804). Briefly, low density, macrophage-depleted bone marrow cells were cultured at a concentration of 0.5 to 1×10^5 /mL in Iscove's modified Dulbecco's medium (IMDM, GIBCI, Grant Island, N.Y.), containing 0.33% agar (Difco, Detroit), 25% FCS (Commonwealth Serum Laboratories, Parkville, Victoria, Australia), and 20 μmol/LK2-mercaptoethanol. Different dilutions of IL-3- containing COS cell supernatants were added to each plate. Plates were prepared in triplicate and scored after incubation at 37° C. in 5% CO2 in a humid atmosphere for 14 days. Clones containing 40 cells were scored as colonies.

For a further assay, the system named is basophils. Nature of the assay: Histamine release assay with basophils. The class given is cell-based, human. Particulars: FIG. 4. The procedure:
This was carried out as previously described (Lopez et. al., 1990, J. Cell. Physiol., 145, 69-77). Briefly, basophils were obtained from the peripheral blood of normal individuals after dextran sedimentation and centrifugation over Lymphoprep. The percentage of basophils in these preparations varied between 0.2% and 10%. In 300 μl 2×10^4 cells were incubated with 2 μg/ml of purified human IgE. IgE-sensitisedcells were mixed with a goat IgG antihuman IgE (Cappel 0101-0061) and rhIL-3, in a final volume of 500 μl. After incubation for 60 min at 37° C., the cells were centrifuged and 350 μl aliquots removed and stored at -20° C. before assaying for histamine content. Histamine was assayed using a radioertzymatic method essentially as described (Shaff and Beavan, 1979, Anal. Biochem., 94, 425-430). Briefly, samples of 30 μl were diluted with an equal volume of water and mixed with a 30 μl solution comprising 27.5 μl 0.1 M sodium phosphate, pH 7.9, 1.5 μl rat kidney histamine-N-methyltransferase, and 1.0 μl (0.5 μCi)^3 H-methyl-S-adensoyl-L-methionine (Dupont Net 155, low SA). Tritium-labelled methyl-histamine was extracted into chloroform/ether, dried, and counted by scintillation spectrophotometry. […] as nanograms of histamine per milliliter by extrapolation to a standard curve constructed with 10, 5 and 1 ng/ml of histamine (SIGMA).

B1: M37: human IL-3 mutant, Asp 101 replaced by Ala and Lys 116 by Val (protein, UniProt P08700 20-152, looked up, variant D101A K116V)
Interleukin-3: APMTQTTPLKTSWVNCSNMIDEIITHLKQPPLPLLDFNNLNGEDQDILMENNLRRPNLEAFNRAVKSLQNASAIESILKNLLPCLPLATAAPTRHPIHIKAGDWNEFRRKLTFYLVTLENAQAQQTTLSLAIF
Take B1: the “fold higher affinity than wild type IL-3” value was 10 fold in the assay with IL-3R α chain (COS cells transfected with IL-3R α chain cDNA, E. coli produced protein); 15 fold in assay [1] (COS cells transfected with IL-3R α chain and β chain cDNAs, E. coli produced protein). In addition, the “competition for 125I-IL-3 binding to cells expressing only the α chain” value in the assay with IL-3R α chain is recorded as “competed for binding more efficiently”; with IL-3R α chain (listed as IL-3 (Ala^101, Val^116)) it was “more potent at competing for binding than wild-type IL-3”. The “binding to cotransfected α and β chains” value in assay [1] (FIG. 7) is listed as “higher affinity”. Also, the “number of day 14 colonies” value in assay [2] is listed as “increase in the number of day 14 colonies”. Moreover, the “Relative biological activity, PROLIFERATION COLONIES” value in assay [2] (concentration of IL-3 mutant giving 50% of biological activity compared to that of wild type IL-3, mean ± SD) is reported as 1700. Besides, the “histamine release from basophils” value with basophils is “increased histamine release”.

Source of the values: patent US5591427A, “Human Interleukin-3(Il-3) variants and their use to promote or antagonize IL-3-mediated processes” (Medvet Science Pty. Ltd., priority 1979, dated 1997).
